From the supplement of paper PMC10567573 come the findings set out here.

B1: TRIM14 (parent)
chain: YARTPTLDPDTMHARLRLSADRLT
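Also: lentivirally expressed fusions sorted by FACS into six bins by GFP to DsRed ratio, PSI derived from sequencing read proportions per bin multiplied by bin number.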

This series covers variants of B1. The series is described as follows: protein stability index of a GFP-peptide fusion (GPS, HEK-293T) (PSI 1-6); higher = more stable. The settings on record: c terminus: a fixed tail appended.
For YARTPTLDPDTMHARLRLSMDRLT [A20M], the protein stability index came to 2.35.

Consider YARTPTLDPDTMHARLRLSSDRLT [A20S], for which the protein stability index turned out to be 3.14.

For the variant YARTPTLDPDTMHARLRLSNDRLT [A20N], the protein stability index was determined as 2.55.

Regarding YARTPTLDPDTMHARLRLSPDRLT [A20P], the protein stability index was determined as 2.6.

Regarding YARTPTLDPDTMHARLRLSFDRLT [A20F], the protein stability index was 1.61.

For the variant YARTPTLDPDTMHARLRLSDDRLT [A20D], the protein stability index was 2.83.

Regarding YARTPTLDPDTMHARLRLSEDRLT [A20E], the protein stability index was found to be 3.03.

For the variant YARTPTLDPDTMHARLRLSGDRLT [A20G], the protein stability index was 2.37.

With YARTPTLDPDTMHARLRLSWDRLT [A20W], the protein stability index was 3.31.

Turning to YARTPTLDPDTMHARLRLSHDRLT [A20H], the protein stability index came out at 2.56.

On to YARTPTLDPDTMHARLRLSRDRLT [A20R], for which the protein stability index stood at 1.49.

On to YARTPTLDPDTMHARLRLSTDRLT [A20T], for which the protein stability index is 2.5.

Consider YARTPTLDPDTMHARLRLSYDRLT [A20Y], for which the protein stability index stood at 2.18.

For YARTPTLDPDTMHARLRLSCDRLT [A20C], the protein stability index came out at 2.14.

With YARTPTLDPDTMHARLRLSVDRLT [A20V], the protein stability index was 1.96.

For YARTPTLDPDTMHARLRLSKDRLT [A20K], the protein stability index turned out to be 3.38.

On to YARTPTLDPDTMHARLRLSQDRLT [A20Q], for which the protein stability index is 1.84.

Regarding YARTPTLDPDTMHARLRLSLDRLT [A20L], the protein stability index turned out to be 2.04.

With YARTPTLDPDTMHARLRLSIDRLT [A20I], the protein stability index is 2.85.

As for YARTPTLDPDTMDARLRLSADRLT [H13D], the protein stability index is 3.77.

Turning to YARTPTLDPDTMLARLRLSADRLT [H13L], the protein stability index turned out to be 2.61.

Consider YARTPTLDPDTMFARLRLSADRLT [H13F], for which the protein stability index turned out to be 2.63.

As for YARTPTLDPDTMRARLRLSADRLT [H13R], the protein stability index was found to be 2.87.

As to YARTPTLDPDTMNARLRLSADRLT [H13N], the protein stability index came to 2.75.

In the case of YARTPTLDPDTMWARLRLSADRLT [H13W], the protein stability index was 2.51.

In the case of YARTPTLDPDTMIARLRLSADRLT [H13I], the protein stability index came to 2.69.

As for YARTPTLDPDTMPARLRLSADRLT [H13P], the protein stability index stood at 3.06.

YARTPTLDPDTMCARLRLSADRLT [H13C]: the protein stability index turned out to be 2.27.

For the variant YARTPTLDPDTMSARLRLSADRLT [H13S], the protein stability index is 3.17.

With YARTPTLDPDTMTARLRLSADRLT [H13T], the protein stability index amounted to 2.77.

Take YARTPTLDPDTMMARLRLSADRLT [H13M]: the protein stability index was determined as 2.69.

As to YARTPTLDPDTMVARLRLSADRLT [H13V], the protein stability index came to 2.23.

On to YARTPTLDPDTMEARLRLSADRLT [H13E], for which the protein stability index is 2.71.

In the case of YARTPTLDPDTMYARLRLSADRLT [H13Y], the protein stability index turned out to be 2.3.

On to YARTPTLDPDTMQARLRLSADRLT [H13Q], for which the protein stability index was 2.84.

YARTPTLDPDTMAARLRLSADRLT [H13A]: the protein stability index was determined as 2.62.

On to YARTPTLDPDTMKARLRLSADRLT [H13K], for which the protein stability index was 2.15.

On to YARTPTLDPDTMHARWRLSADRLT [L16W], for which the protein stability index is 2.56.

Turning to YARTPTLDPDTMHARERLSADRLT [L16E], the protein stability index was 3.5.

For the variant YARTPTLDPDTMHARYRLSADRLT [L16Y], the protein stability index came to 2.19.

As to YARTPTLDPDTMHARSRLSADRLT [L16S], the protein stability index was determined as 3.52.

Turning to YARTPTLDPDTMHARKRLSADRLT [L16K], the protein stability index was 3.01.

YARTPTLDPDTMHARCRLSADRLT [L16C]: the protein stability index came to 1.93.

On to YARTPTLDPDTMHARNRLSADRLT [L16N], for which the protein stability index turned out to be 2.57.

On to YARTPTLDPDTMHARVRLSADRLT [L16V], for which the protein stability index worked out at 2.49.

Take YARTPTLDPDTMHARFRLSADRLT [L16F]: the protein stability index amounted to 2.84.

For YARTPTLDPDTMHARPRLSADRLT [L16P], the protein stability index is 2.94.

Take YARTPTLDPDTMHARDRLSADRLT [L16D]: the protein stability index stood at 2.77.

In the case of YARTPTLDPDTMHARRRLSADRLT [L16R], the protein stability index turned out to be 3.27.

Take YARTPTLDPDTMHARIRLSADRLT [L16I]: the protein stability index was found to be 2.56.

Turning to YARTPTLDPDTMHARHRLSADRLT [L16H], the protein stability index was 3.27.

Turning to YARTPTLDPDTMHARMRLSADRLT [L16M], the protein stability index amounted to 2.67.

For YARTPTLDPDTMHARQRLSADRLT [L16Q], the protein stability index was found to be 2.93.

Take YARTPTLDPDTMHARTRLSADRLT [L16T]: the protein stability index turned out to be 3.02.

Consider YARTPTLDPDTMHARLRMSADRLT [L18M], for which the protein stability index turned out to be 2.65.

With YARTPTLDPDTMHARLRWSADRLT [L18W], the protein stability index was found to be 2.18.

Take YARTPTLDPDTMHARLRRSADRLT [L18R]: the protein stability index was found to be 2.81.

On to YARTPTLDPDTMHARLRCSADRLT [L18C], for which the protein stability index was 2.62.

Consider YARTPTLDPDTMHARLRASADRLT [L18A], for which the protein stability index came to 3.6.

As for YARTPTLDPDTMHARLRQSADRLT [L18Q], the protein stability index is 2.65.

For YARTPTLDPDTMHARLRTSADRLT [L18T], the protein stability index worked out at 2.42.

Turning to YARTPTLDPDTMHARLRYSADRLT [L18Y], the protein stability index stood at 2.93.

Regarding YARTPTLDPDTMHARLRESADRLT [L18E], the protein stability index was found to be 3.06.

As to YARTPTLDPDTMHARLRNSADRLT [L18N], the protein stability index stood at 3.3.

Turning to YARTPTLDPDTMHARLRKSADRLT [L18K], the protein stability index was determined as 2.51.

Regarding YARTPTLDPDTMHARLRPSADRLT [L18P], the protein stability index amounted to 3.34.

As to YARTPTLDPDTMHARLRGSADRLT [L18G], the protein stability index stood at 2.06.

Take YARTPTLDPDTMHARLRDSADRLT [L18D]: the protein stability index was determined as 3.38.

For the variant YARTPTLDPDTMHARLRFSADRLT [L18F], the protein stability index amounted to 2.04.

Regarding YARTPTLDPDTMHARLRHSADRLT [L18H], the protein stability index amounted to 2.82.

Regarding YARTPTLDPDTMHARLRISADRLT [L18I], the protein stability index is 2.78.

Regarding YARTPTLDPDTMHARLRVSADRLT [L18V], the protein stability index was 2.62.

For YARTPTLDPDTMHARLRSSADRLT [L18S], the protein stability index amounted to 2.87.

For YARTPTLDPDTMHFRLRLSADRLT [A14F], the protein stability index was found to be 1.96.

In the case of YARTPTLDPDTMHIRLRLSADRLT [A14I], the protein stability index was determined as 2.13.

On to YARTPTLDPDTMHERLRLSADRLT [A14E], for which the protein stability index amounted to 2.67.

Consider YARTPTLDPDTMHKRLRLSADRLT [A14K], for which the protein stability index came to 1.83.

YARTPTLDPDTMHVRLRLSADRLT [A14V]: the protein stability index stood at 2.53.

For YARTPTLDPDTMHHRLRLSADRLT [A14H], the protein stability index was determined as 2.04.

In the case of YARTPTLDPDTMHWRLRLSADRLT [A14W], the protein stability index stood at 2.7.

As to YARTPTLDPDTMHGRLRLSADRLT [A14G], the protein stability index came to 3.26.

With YARTPTLDPDTMHRRLRLSADRLT [A14R], the protein stability index amounted to 2.13.

As to YARTPTLDPDTMHDRLRLSADRLT [A14D], the protein stability index is 3.25.

Consider YARTPTLDPDTMHSRLRLSADRLT [A14S], for which the protein stability index was determined as 3.02.

Take YARTPTLDPDTMHLRLRLSADRLT [A14L]: the protein stability index was determined as 2.81.

With YARTPTLDPDTMHCRLRLSADRLT [A14C], the protein stability index turned out to be 2.62.

For YARTPTLDPDTMHNRLRLSADRLT [A14N], the protein stability index was 3.08.

Consider YARTPTLDPDTMHTRLRLSADRLT [A14T], for which the protein stability index was found to be 2.61.

Consider YARTPTLDPDTMHQRLRLSADRLT [A14Q], for which the protein stability index stood at 2.59.

Consider YARTPTLDPDTMHMRLRLSADRLT [A14M], for which the protein stability index was found to be 2.36.

As for YARTPTLDPDTMHYRLRLSADRLT [A14Y], the protein stability index is 1.98.

For the variant YARTPTLDPDTMHPRLRLSADRLT [A14P], the protein stability index came out at 2.45.

For the variant YARTPTLDPDTMHAYLRLSADRLT [R15Y], the protein stability index worked out at 2.26.

For YARTPTLDPDTMHATLRLSADRLT [R15T], the protein stability index is 3.03.
